How the values were obtained:
TatCel7A = biological target: T1, TatCel7A (Trichoderma atroviride, UniProt G9NTY1); test: competitive (product) inhibition of pNP-Lac hydrolysis, pH […] °C; format: biochemical
T1 construct: gene TRIATDRAFT_88458

ThaCel7A = biological target: T2, ThaCel7A (Trichoderma harzianum, UniProt Q9P8P3); test: as above; format: biochemical
T2 construct: gene cbh1
T2 sequence (Q9P8P3 18-443): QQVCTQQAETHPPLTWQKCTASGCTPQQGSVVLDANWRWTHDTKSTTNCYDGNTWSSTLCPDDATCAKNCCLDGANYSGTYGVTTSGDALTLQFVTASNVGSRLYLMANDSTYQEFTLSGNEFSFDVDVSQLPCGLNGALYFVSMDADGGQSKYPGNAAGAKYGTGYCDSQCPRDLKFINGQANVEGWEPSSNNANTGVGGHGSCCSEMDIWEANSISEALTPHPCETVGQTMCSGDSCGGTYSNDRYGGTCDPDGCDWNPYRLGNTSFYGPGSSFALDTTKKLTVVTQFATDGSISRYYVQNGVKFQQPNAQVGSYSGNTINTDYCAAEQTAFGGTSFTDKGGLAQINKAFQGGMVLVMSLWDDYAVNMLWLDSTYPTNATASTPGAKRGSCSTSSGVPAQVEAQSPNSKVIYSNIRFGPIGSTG

TreCel7A = biological target: T3, TreCel7A (Trichoderma reesei, UniProt P62694); test: as above; format: biochemical
T3 construct: gene cbh1
T3 sequence (P62694 18-451): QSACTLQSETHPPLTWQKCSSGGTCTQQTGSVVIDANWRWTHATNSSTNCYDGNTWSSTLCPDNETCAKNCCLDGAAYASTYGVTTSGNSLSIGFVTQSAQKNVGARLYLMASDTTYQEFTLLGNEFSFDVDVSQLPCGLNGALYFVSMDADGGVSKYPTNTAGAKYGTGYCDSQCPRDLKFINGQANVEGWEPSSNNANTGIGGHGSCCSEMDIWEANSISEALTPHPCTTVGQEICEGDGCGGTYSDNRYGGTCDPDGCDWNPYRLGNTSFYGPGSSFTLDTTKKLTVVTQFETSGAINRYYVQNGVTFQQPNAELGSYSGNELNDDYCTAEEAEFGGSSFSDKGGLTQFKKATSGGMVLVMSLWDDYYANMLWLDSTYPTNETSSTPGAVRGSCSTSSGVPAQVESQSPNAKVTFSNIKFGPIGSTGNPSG

purified protein [1] = substrate: [H][C@@]1(O[C@H]2[C@H](O)[C@@H](O)[C@H](Oc3ccc([N+](=O)[O-])cc3)O[C@@H]2CO)O[C@H](CO)[C@H](O)[C@H](O)[C@H]1O; test: purified protein; format: biochemical, Trichoderma reesei; details: subsites (−[…]/−[…]/+[…]) where pNP-Lac should bind for hydrolysis; pH 4.5; 30.0 °C
purified protein [2] = substrate: [H][C@@]1(O[C@H]2[C@H](O)[C@@H](O)[C@H](Oc3ccc([N+](=O)[O-])cc3)O[C@@H]2CO)O[C@H](CO)[C@H](O)[C@H](O)[C@H]1O; test: purified protein; format: biochemical, Trichoderma atroviride; details: subsites (−[…]/−[…]/+[…]) where pNP-Lac should bind for hydrolysis; pH 4.5; 30.0 °C
purified protein [3] = substrate: [H][C@@]1(O[C@H]2[C@H](O)[C@@H](O)[C@H](Oc3ccc([N+](=O)[O-])cc3)O[C@@H]2CO)O[C@H](CO)[C@H](O)[C@H](O)[C@H]1O; test: purified protein; format: biochemical, Trichoderma harzianum; details: subsites (−[…]/−[…]/+[…]) where pNP-Lac should bind for hydrolysis; pH 4.5; 30.0 °C

Molecule: OC[C@H]1O[C@@H](O[C@H]2[C@H](O)[C@@H](O)C(O)O[C@@H]2CO)[C@H](O)[C@@H](O)[C@@H]1O (stereo partly drawn) [cellobiose]
- Ki (TatCel7A): 72 µM
- Ki (ThaCel7A): 49 µM
- Ki (TreCel7A): 24 µM

B1: TreCel7A (Trichoderma reesei) (protein)
chain: T3 sequence (P62694 18-451)
- Km (purified protein [1]): 720 µM
- kcat (purified protein [1]): 0.057 s⁻¹
- kcat/Km (purified protein [1]): 79 M⁻¹ s⁻¹

B2: TatCel7A (Trichoderma atroviride IMI 206040) (protein)
chain: QQVCTTQAETHPALSWSKCTSGGSCTTQAGKVVLDANWRWTHAYPSGNNCYNGNTWDATLCPDDATCAKNCCLEGADYSGTYGVTTSGNQLTIDFVTQSANKNVGARLYLMASDTAYEEFTLLNNEFSFDVDVSALPCGLNGALYFVSMDADGGASKYPTNLAGAKYGTGYCDSQCPRDLKFISGQANVEGWQPSSNNANTGIGGHGSCCSEMDIWEANSISQALTPHPCETVGQVTCSGDDCGGTYSNNRYGGTCDPDGCDWNPYRLGNHTFYGPGSGFTVDTTKKITVVTQFSSTGINRYYVQNGVKFVQPNASGLSGYTGNTINSAYCSAEQTAFGGTSFTDKGGLTQMNKALSGGMVLVLSLWDDYAANMLWLDSTYPTNDTASTPGAARGTCSTSSGVPATVEQQSPNSKVVFSNIKFGPIGSTG
- Km (purified protein [2]): 1000 µM
- kcat (purified protein [2]): 0.019 s⁻¹
- kcat/Km (purified protein [2]): 19 M⁻¹ s⁻¹

B3: ThaCel7A (Trichoderma harzianum) (protein)
chain: T2 sequence (Q9P8P3 18-443)
- Km (purified protein [3]): 900 µM
- kcat (purified protein [3]): 0.067 s⁻¹
- kcat/Km (purified protein [3]): 75 M⁻¹ s⁻¹

Source: PMC5766984, “Correlation of structure, function and protein dynamics in GH7 cellobiohydrolases from Trichoderma atroviride, T. reesei and T. harzianum” (Biotechnology for Biofuels, 2018)
